Test results as given in article PMC4132694 (Cellular signalling, 2013).

B1: GST-JNK3 (human JNK3α1) (enzyme, UniProt P53779-2 1-422, looked up)
chain: MSLHFLYYCSEPTLDVKIAFCQGFDKQVDVSYIAKHYNMSKSKVDNQFYSVEVGDSTFTVLKRYQNLKPIGSGAQGIVCAAYDAVLDRNVAIKKLSRPFQNQTHAKRAYRELVLMKCVNHKNIISLLNVFTPQKTLEEFQDVYLVMELMDANLCQVIQMELDHERMSYLLYQMLCGIKHLHSAGIIHRDLKPSNIVVKSDCTLKILDFGLARTAGTSFMMTPYVVTRYYRAPEVILGMGYKENVDIWSVGCIMGEMVRHKILFPGRDYIDQWNKVIEQLGTPCPEFMKKLQPTVRNYVENRPKYAGLTFPKLFPDSLFPADSEHNKLKASQARDLLSKMLVIDPAKRISVDDALQHPYINVWYDPAEVEAPPPQIYDKQLDEREHTIEEWKELIYKEVMNSEEKTKNGVVKGQPSPSAQVQQ
B2: full-length wild-type (WT) SMTNL2 (Smoothelin-like 2), [35S]-labeled (natural protein, human, UniProt Q2TAL5-1 1-461, looked up)
chain: MEPAPDAQEARTVREALGRYEAALEGAVRALHEDMRGLQRGVERRVAEAMRLAGPLARTVADLQRDNQRLQAQLERLTRQVEALGLASGMSPVPGTPGTPSPPPAPGVPDRAPRLGSARFASHATFSLSGRGQSLDHDEASESEMRKTSNSCIMENGHQPGAGPGDGPPEIAQNFSAPDPPRPRPVSLSLRLPHQPVTAITRVSDRFSGETSAAALSPMSAATLGGLNPSPSEVITPWTPSPSEKNSSFTWSVPSSGYGAVTASKHSNSPPLVTPPQSPVSPQPPAITQVHRQGERRRELVRSQTLPRTSEAQARKALFEKWEQETAAGKGKGEARARLKRSQSFGVASASSIKQILLEWCRSKTLGYQHVDLQNFSSSWSDGMAFCALVHSFFPDAFDYNSLSPTQRQKNFELAFTMAENLANCERLIEVEDMMVMGRKPDPMCVFTYVQSLYNHLRRFE
modifications: [35S]-methionine label
B3: GST-JNK1 (human JNK1α1) (enzyme, UniProt P45983-2 1-384, looked up)
chain: MSRSKRDNNFYSVEIGDSTFTVLKRYQNLKPIGSGAQGIVCAAYDAILERNVAIKKLSRPFQNQTHAKRAYRELVLMKCVNHKNIIGLLNVFTPQKSLEEFQDVYIVMELMDANLCQVIQMELDHERMSYLLYQMLCGIKHLHSAGIIHRDLKPSNIVVKSDCTLKILDFGLARTAGTSFMMTPYVVTRYYRAPEVILGMGYKENVDLWSVGCIMGEMVCHKILFPGRDYIDQWNKVIEQLGTPCPEFMKKLQPTVRTYVENRPKYAGYSFEKLFPDVLFPADSEHNKLKASQARDLLSKMLVIDASKRISVDEALQHPYINVWYDPSEAEAPPPKIPDKQLDEREHTIEEWKELIYKEVMDLEERTKNGVIRGQPSPLAQVQQ

Tests used:
Assay in all cases: pull-down
[1] = target: B2
[2] = target: GST-JNK2 (human JNK2α2) (human, UniProt P45984-1 1-424)
[3] = target: B3
[4] = target: B1

Binder | Kd [1] [µM] | percent of input bound [2] | percent of input bound [3] | percent of input bound [4]
B1 | ~4 |  |  | 
B2 |  | 65 % of input | 8 % of input | 50 % of input
B3 | ~50 |  |  | 
